Laboratory results published in patent US20240025997A1 (NGM BIOPHARMACEUTICALS, published 2024).

How the values were obtained:
soluble human ILT4-ECD [1] = molecular target: T1, soluble human ILT4-ECD (human, UniProt Q8N423 22-460); assay: Biacore competition: antibody titrated against 20 nM ILT4-ECD, mixture injected over biotinylated HLA-A*1101 on a NeutrAvidin chip; blocked ligand HLA-A*1101
T1 construct: also called LILRB2 extracellular domain
Method: (§1) As part of the characterization process, the ability of exemplary antibodies to inhibit or block the interaction of ILT2 or ILT4 with their natural ligands was evaluated in competition experiments using a Biacore system. As described herein, the natural ligands of ILT2 and ILT4 include, but are not limited to, HLA class I molecules, including HLA-A, HLA-B, HLA-C, HLA-E, and HLA-G. Biotinylated HLA-A*1101 was captured in high amounts on a NeutrAvidin chip surface. Antigen-antibody complexes were prepared with (i) ILT2-ECD and anti-ILT2 antibody 27F9, anti-ILT4 antibody 48A5, or anti-ILT2/ILT4 antibody Hz73D1.v1 and (ii) ILT4-ECD and anti-ILT2 antibody 27F9, anti-ILT4 antibody 48A5, or anti-ILT2/ILT4 antibody Hz73D1.v1. The antibody concentration of each antibody was titrated from 0.09-100 nM and the concentration of human ILT2-ECD or ILT4-ECD was kept constant at 20 nM. The complexes were mixed in a 96-well microplate and each was injected onto the HLA-A-coated chip surface. The measured signal (response unit, RU) was plotted against the antibody concentration.

[2] = molecular target: T2, cynomolgus monkey ILT2 on cells (cynomolgus monkey); assay: flow cytometry, fluorescently labelled antibody on CD14+ monocytes of cyno PBMC (2 donors), geometric MFI
T2 construct: also called cyno ILT2; ILT2 on cyno CD14+ monocytes
T2 sequence (chain, as listed by the source): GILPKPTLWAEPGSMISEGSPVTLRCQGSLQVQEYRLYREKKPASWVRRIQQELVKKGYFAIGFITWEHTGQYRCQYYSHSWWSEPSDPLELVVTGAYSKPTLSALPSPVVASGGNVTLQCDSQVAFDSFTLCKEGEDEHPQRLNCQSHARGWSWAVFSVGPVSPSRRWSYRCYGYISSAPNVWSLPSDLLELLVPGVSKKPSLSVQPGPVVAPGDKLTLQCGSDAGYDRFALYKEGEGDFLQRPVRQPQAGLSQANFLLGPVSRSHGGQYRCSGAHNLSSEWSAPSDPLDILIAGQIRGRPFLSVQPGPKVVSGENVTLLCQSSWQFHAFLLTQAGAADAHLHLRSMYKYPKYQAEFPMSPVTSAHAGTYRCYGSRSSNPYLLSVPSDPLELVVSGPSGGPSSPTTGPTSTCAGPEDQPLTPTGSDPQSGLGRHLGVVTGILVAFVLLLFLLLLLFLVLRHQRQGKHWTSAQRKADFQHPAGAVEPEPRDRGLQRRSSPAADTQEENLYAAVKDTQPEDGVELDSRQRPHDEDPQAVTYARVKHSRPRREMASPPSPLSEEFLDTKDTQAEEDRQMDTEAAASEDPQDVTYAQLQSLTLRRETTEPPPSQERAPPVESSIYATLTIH
Method: The binding of anti-ILT2/ILT4 antibodies to monocytes was evaluated. The binding of exemplary anti-ILT2/ILT4 antibody 73D1 and the humanized version Hz73D1.v1 to the CD14+ monocyte population of human and cyno PBMC were determined by flow cytometry analysis. Briefly, human or cyno PBMCs (from 2 donors each) were thawed, washed in media (RPMI, 10% FBS, L-glutamine, pen/strep), and resuspended in fresh media. PBMCs were stained with a cocktail of labeled antibodies to differentiate between the different cell types. 1×10⁶ cells/well were stained with fluorescently-labelled 73D1 or Hz73D1.v1 antibody and incubated on ice. The cells were washed with ice-cold reagents and immediately analyzed by flow cytometry. The geometric mean fluorescence intensity for CD14+ monocytes was calculated for each sample. […] For example, the 50% effective concentration (EC₅₀) of Hz73D1.v1 was 8.8 nM with human monocytes and 1.8 nM with cyno monocytes.

human ILT4 on cells [3] = molecular target: T3, human ILT4 on cells (human, UniProt Q8N423 22-597); assay: cell-based or functional assay
T3 sequence (Q8N423 other isoform, or with tags, fused parts or gaps): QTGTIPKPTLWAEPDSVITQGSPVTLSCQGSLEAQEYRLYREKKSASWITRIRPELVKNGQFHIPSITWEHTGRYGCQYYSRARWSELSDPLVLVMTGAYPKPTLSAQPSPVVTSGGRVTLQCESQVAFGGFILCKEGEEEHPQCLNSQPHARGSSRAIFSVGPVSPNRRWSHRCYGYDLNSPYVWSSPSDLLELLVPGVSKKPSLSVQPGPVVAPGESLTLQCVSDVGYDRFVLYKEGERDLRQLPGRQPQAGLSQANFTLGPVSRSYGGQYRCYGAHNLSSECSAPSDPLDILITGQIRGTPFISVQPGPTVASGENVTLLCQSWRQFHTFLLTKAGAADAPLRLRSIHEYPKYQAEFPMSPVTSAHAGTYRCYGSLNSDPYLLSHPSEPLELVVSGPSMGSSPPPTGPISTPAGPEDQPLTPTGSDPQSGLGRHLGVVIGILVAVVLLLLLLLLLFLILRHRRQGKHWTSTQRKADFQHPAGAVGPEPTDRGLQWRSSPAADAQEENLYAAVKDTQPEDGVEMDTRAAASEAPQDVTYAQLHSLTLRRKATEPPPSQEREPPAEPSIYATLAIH

human ILT2 on cells = human ILT2 on cells (human, UniProt Q8NHL6 24-650); assay: cell-based or functional assay
Chain of human ILT2 on cells (Q8NHL6 24-650): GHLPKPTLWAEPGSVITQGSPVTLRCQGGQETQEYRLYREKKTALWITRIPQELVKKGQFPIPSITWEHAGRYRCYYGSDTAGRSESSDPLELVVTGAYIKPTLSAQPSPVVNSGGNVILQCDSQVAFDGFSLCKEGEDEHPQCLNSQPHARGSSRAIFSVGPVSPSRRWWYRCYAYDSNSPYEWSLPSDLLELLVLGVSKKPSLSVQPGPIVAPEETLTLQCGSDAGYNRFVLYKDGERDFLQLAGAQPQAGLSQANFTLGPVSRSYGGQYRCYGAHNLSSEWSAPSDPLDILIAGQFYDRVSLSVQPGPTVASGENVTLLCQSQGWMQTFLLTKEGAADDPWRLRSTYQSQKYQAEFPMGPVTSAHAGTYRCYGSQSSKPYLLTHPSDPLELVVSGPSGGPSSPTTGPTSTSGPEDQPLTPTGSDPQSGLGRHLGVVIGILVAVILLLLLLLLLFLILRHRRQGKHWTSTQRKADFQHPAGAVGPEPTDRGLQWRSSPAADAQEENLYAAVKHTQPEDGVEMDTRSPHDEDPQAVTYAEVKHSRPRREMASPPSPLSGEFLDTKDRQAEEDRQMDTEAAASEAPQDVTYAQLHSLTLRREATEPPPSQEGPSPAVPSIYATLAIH

Human ILT4-Fc = Human ILT4-Fc (human, UniProt Q8N423 22-460); assay: SPR (Biacore) competition: blocking of human ILT4-Fc binding to HLA-A, 25 C
Chain of Human ILT4-Fc (Q8N423 other isoform, or with tags, fused parts or gaps): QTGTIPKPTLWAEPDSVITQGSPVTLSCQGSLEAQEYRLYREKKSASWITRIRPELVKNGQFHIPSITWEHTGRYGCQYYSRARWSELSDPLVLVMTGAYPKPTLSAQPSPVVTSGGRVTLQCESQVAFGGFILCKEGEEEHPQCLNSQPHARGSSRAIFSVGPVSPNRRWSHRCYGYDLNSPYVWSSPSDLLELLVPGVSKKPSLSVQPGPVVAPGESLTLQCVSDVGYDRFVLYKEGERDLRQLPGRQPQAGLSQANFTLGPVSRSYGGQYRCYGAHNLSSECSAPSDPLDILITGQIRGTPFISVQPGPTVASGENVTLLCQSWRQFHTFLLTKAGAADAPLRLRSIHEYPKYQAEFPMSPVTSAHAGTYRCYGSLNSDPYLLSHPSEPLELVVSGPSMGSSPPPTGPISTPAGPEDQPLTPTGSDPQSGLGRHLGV
Method: (§2) In addition to the reporter cell system, the inhibitory activity of anti-ILT2/ILT4 antibodies towards the interaction between ILT2 and MHC I molecules, and the interaction between ILT4 and MHC I molecules was evaluated using the Biacore system. Human ILT2-Fc and ILT4-Fc were used as target receptors and their interaction with an exemplary MHC-I molecule (HLA-A) was assayed in the presence or absence of an exemplary anti-ILT2/ILT4 antibody Hz73D1.v1 at 25° C. Anti-human ILT2 (clone 27F9) or ILT4 (clone 48A5) antibodies were used as tool reagents to dissect ILT2- and ILT4-specific blocking activities. Anti-IL2/ILT4 antibodies produced a dose-dependent reduction in the interaction between ILT2 and HLA-A, as well as between ILT4 and HLA-A. IC50s of the antibodies tested are shown in Table 16.

Human ILT2-Fc = Human ILT2-Fc (human, UniProt Q8NHL6 24-461, limits assumed); assay: SPR (Biacore) competition: blocking of human ILT2-Fc binding to HLA-A, 25 C
Chain of Human ILT2-Fc (Q8NHL6 24-461 limits assumed): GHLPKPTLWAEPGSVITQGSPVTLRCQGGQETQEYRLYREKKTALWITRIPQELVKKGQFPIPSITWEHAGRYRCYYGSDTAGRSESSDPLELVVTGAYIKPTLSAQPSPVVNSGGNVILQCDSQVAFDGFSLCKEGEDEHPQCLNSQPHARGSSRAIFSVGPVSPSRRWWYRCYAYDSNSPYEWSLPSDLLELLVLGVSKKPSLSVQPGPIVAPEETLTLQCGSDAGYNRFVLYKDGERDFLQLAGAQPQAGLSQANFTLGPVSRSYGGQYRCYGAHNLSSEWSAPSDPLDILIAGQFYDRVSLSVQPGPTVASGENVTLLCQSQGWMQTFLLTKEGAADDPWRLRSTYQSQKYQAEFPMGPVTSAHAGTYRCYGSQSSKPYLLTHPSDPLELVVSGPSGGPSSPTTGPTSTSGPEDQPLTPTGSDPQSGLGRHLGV
Method: as §2

human ILT4 on cells [4] = molecular target: T3, human ILT4 on cells; assay: cell-based or functional assay; remark: listed apart in the source
soluble human ILT2-ECD [5] = molecular target: T4, soluble human ILT2-ECD (human, UniProt Q8NHL6 24-461); assay: Biacore competition: antibody titrated against 20 nM ILT2-ECD, mixture injected over biotinylated HLA-A*1101 on a NeutrAvidin chip; blocked ligand HLA-A*1101
T4 construct: also called LILRB1 extracellular domain
T4 sequence (Q8NHL6 24-461): as the sequence (Q8NHL6 24-461 limits assumed) above
Method: as §1

soluble human ILT2-ECD [6] = molecular target: T4, soluble human ILT2-ECD; assay: SPR (Biacore) as described in Example 3
Method: (§3) The binding affinities of anti-ILT2 and anti-ILT4 antibodies were measured using a Biacore system (GE Healthcare LifeSciences). Equilibrium dissociation constant (KD) measurements were carried out with purified antibodies to evaluate their binding to human ILT2, human ILT4, and rhesus ILT2. Briefly, purified anti-ILT2 antibody 27F9, anti-ILT4 antibodies 47C8 and 48A5, and anti-ILT2/ILT4 antibodies 47H6, 51A1, 64A12, 73C4, and 73D1 were captured on a Sensor Chip Protein A (GE HealthCare). The surface of the Biacore Sensor Chip Protein A consists of a carboxymethylated dextran matrix with a recombinant Protein A variant covalently attached. Soluble human ILT2-ECD, human ILT4-ECD, or rhesus ILT2-ECD were injected at a flow rate of 30 μL/min at 25° C. The ILT2 or ILT4 proteins were used at concentrations ranging from 1.6-200 nM in PBS-P buffer with 2 fold dilutions. Kinetic data were collected over time and fit using the simultaneous global fit equation to yield affinity constants (KD values) for each antibody.
(§4) The binding affinities of the humanized antibodies to human ILT2 and human ILT4 were measured using a Biacore system as described herein. The binding affinities of antibodies Hz47H6.v2, Hz64A12, and Hz73D1.v1 are shown in Table 11 as compared with the parental antibodies.

soluble human ILT4-ECD [7] = molecular target: T1, soluble human ILT4-ECD; assay: SPR (Biacore) as described in Example 3
Method: as §3, §4

soluble human ILT2-ECD [8] = molecular target: T4, soluble human ILT2-ECD; assay: SPR (Biacore), antibody captured on Protein A chip, ILT protein injected, 25 C
soluble human ILT4-ECD [9] = molecular target: T1, soluble human ILT4-ECD; assay: as above

IC50 (read off the curve) (soluble human ILT4-ECD [1]): ~9 nM
binding result [2]: binds
EC50, GM-CSF secretion of LPS-stimulated human PBMC (human ILT4 on cells [3]): 1.5 nM
EC50, TNFalpha secretion of LPS-stimulated human PBMC (human ILT4 on cells [3]): 0.76 nM
EC50, NKL cytolytic activity against 721.221-HLA-A*0201 target cells (human ILT2 on cells): 0.13 nM
EC50, NKL cytolytic activity against 721.221-HLA-G target cells (human ILT2 on cells): 2.4 nM
percent CD137+ NK cells, ADCC assay with CAL-27 cells and anti-EGFR antibody (human ILT2 on cells): 1.8 fold
IC50 (Human ILT4-Fc): 9.4 nM
IC50 (Human ILT2-Fc): 10 nM
EC50 (nM), TNFalpha secretion of tolerized dendritic cells, LPS + Cyclosporine (human ILT4 on cells [4]): 0.2 nM
EC50 (nM), TNFalpha secretion of tolerized dendritic cells, LPS + IL-6 (human ILT4 on cells [4]): 0.14 nM
EC50 (nM), TNFalpha secretion of tolerized dendritic cells, LPS + IL-10 (human ILT4 on cells [4]): 1.2 nM
EC50 (nM), TNFalpha secretion of tolerized dendritic cells, LPS + PGE2 (human ILT4 on cells [4]): 0.44 nM
EC50 (nM), TNFalpha secretion of tolerized dendritic cells, LPS + Rapamycin (human ILT4 on cells [4]): 0.15 nM
EC50 (nM), TNFalpha secretion of tolerized dendritic cells, LPS + TGFβ (human ILT4 on cells [4]): 0.1 nM
EC50 (nM), TNFalpha secretion of tolerized dendritic cells, LPS + VitD3/Dex (human ILT4 on cells [4]): 0.4 nM
IC50 (read off the curve) (soluble human ILT2-ECD [5]): ~9 nM
Kd (soluble human ILT2-ECD [6]): 3 nM
koff (soluble human ILT2-ECD [6]): 0.00025 s⁻¹
kon (soluble human ILT2-ECD [6]): 85000 M⁻¹ s⁻¹
Kd (soluble human ILT4-ECD [7]): 0.75 nM
koff (soluble human ILT4-ECD [7]): 0.00027 s⁻¹
kon (soluble human ILT4-ECD [7]): 360000 M⁻¹ s⁻¹
Kd (soluble human ILT2-ECD [8]): 1.03 nM
koff (soluble human ILT2-ECD [8]): 4.85e-05 s⁻¹
kon (soluble human ILT2-ECD [8]): 47200 M⁻¹ s⁻¹
Kd (soluble human ILT4-ECD [9]): 0.205 nM
koff (soluble human ILT4-ECD [9]): 4.6e-05 s⁻¹
kon (soluble human ILT4-ECD [9]): 220000 M⁻¹ s⁻¹
B1: humanized anti-ILT2/ILT4 antibody Hz73D1.v1 (antibody, human IgG1, kappa, N297G, V domains shown)
VH: QVQLVQSGAEVKKPGASVKVSCKASGYTFTDYYINWVRQAPGQGLEWMGNVNPNDGGTTYNQKFKGRVTMTTDTSTSTAYMELRSLRSDDTAVYYCARREIYFYGTIYYYAMDYWGQGTLVTVSS
VL: DIQLTQSPSFLSASVGDRVTITCRASESVDYYGNSFMYWYQQKPGKAPKLLIYFASNLESGVPSRFSGSGSGTEFTLTISSLQPEDFATYYCQQNNEDPWTFGGGTKVEIKR
notes: Human IgG1 constant region with G at position 297, human kappa; also called Hz73D1.vi
